These results are taken from article PMC8545432.

Broadly, the stoichiometry N is the number of molecules, sites or subunits per partner or assembly.

Experiment [1] deals with AcrIIA22 (thrombin-cleaved, from the N-terminal His6 construct) (unnamed clostridial genus CAG-217 (human gut metagenome)). Put plainly: SEC; thrombin-cleaved AcrIIA22 variants; Superdex75 16/60; 25 mM Tris pH 7.5, 200 mM NaCl; size against protein standards.
Experiment [2] addresses AcrIIA22 2-amino acid C-terminal truncation mutant (thrombin-cleaved) (unnamed clostridial genus CAG-217 (human gut metagenome)). The description is as above.

As to “AcrIIA22 (thrombin-cleaved, from the N-terminal His6 construct) (natural protein)”, the stoichiometry N in experiment [1] was found to be 4.
In experiment [2], “AcrIIA22 2-amino acid C-terminal truncation mutant (thrombin-cleaved) (domain or fragment)” came in with a stoichiometry N of 2.
